The values that follow come from patent publication US20210355178A1 (published 2021).

Usually Kd stands for the constant that tells how readily two partners part at equilibrium.

For this assay, the target named is complement factor C3b (UniProt P01024 23-667; P01024 749-1663). Description: SPR; steady-state fit. On the technique in general: SPR reads the build-up and loss of mass on a sensor chip optically.
Sequence of complement factor C3b (P01024 23-667, chain 1 of 2): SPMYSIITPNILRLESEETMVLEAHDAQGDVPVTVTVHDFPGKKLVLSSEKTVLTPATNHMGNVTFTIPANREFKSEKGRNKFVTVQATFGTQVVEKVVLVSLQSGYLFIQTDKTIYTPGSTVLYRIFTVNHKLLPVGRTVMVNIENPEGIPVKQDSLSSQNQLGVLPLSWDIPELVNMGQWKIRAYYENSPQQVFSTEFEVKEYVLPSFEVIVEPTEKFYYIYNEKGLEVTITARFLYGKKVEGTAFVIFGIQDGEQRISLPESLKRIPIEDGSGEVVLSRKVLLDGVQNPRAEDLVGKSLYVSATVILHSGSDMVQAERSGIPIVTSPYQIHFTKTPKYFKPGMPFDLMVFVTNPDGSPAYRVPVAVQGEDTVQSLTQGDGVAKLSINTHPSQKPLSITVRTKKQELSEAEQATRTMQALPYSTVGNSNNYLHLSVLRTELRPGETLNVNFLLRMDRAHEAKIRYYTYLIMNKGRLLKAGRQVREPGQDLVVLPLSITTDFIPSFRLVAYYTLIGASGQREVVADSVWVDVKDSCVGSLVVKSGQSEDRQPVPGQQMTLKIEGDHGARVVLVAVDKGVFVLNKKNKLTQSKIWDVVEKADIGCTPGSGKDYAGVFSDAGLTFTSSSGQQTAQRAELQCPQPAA
Sequence of complement factor C3b (P01024 749-1663, chain 2 of 2): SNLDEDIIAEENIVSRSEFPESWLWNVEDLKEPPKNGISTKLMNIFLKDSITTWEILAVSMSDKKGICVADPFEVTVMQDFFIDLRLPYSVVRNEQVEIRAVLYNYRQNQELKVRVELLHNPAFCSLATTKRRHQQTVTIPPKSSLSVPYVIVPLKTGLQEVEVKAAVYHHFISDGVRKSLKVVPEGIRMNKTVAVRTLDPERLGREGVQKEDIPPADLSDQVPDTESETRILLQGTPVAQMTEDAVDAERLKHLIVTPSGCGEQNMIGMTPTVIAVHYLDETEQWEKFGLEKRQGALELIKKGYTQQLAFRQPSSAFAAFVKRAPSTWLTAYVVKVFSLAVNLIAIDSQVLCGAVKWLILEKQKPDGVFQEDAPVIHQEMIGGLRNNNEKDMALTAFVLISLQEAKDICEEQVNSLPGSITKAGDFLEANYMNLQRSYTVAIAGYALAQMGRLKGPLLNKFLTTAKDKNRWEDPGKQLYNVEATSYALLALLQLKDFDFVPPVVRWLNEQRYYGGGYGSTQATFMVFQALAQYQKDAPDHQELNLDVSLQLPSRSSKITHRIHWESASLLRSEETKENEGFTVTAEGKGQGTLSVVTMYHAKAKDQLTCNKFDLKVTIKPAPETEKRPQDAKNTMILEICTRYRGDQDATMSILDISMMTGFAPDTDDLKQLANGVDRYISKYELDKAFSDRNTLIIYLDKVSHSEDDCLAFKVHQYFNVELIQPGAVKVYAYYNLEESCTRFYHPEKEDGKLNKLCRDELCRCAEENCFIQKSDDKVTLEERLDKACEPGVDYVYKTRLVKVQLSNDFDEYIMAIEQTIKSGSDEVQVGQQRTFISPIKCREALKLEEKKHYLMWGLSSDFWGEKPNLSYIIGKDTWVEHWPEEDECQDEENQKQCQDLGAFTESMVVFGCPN

B1: miniFH (designed binder)
chain: EDCNELPPRRNTEILTGSWSDQTYPEGTQAIYKCRPGYRSLGNIIMVCRKGEWVALNPLRKCQKRPCGHPGDTPFGTFTLTGGNVFEYGVKAVYTCNEGYQLLGEINYRECDTDGWTNDIPICEVVKCLPVTAPENGKIVSSAMEPDREYHFGQAVRFVCNSGYKIEGDEEMHCSDDGFWSKEKPKCVEISCKSPDVINGSPISQKIIYKENERFQYKCNMGYEYSERGDAVCTESGWRPLPSCEEAGGGGGGGGGGGGGKCGPPPPIDNGDITSFPLSVYAPASSVEYQCQNLYQLEGNKRITCRNGQWSEPPKCLHPCVISREIMENYNIALRWTAKQKLYSRTGESVEFVCKRGYRLSSRSHTLRTTCWDGKLEYPTCAKR
The molecule B1 had a dissociation constant Kd of 588 nM.

B2: miniFH-Fc (Fc fusion)
chain: EDCNELPPRRNTEILTGSWSDQTYPEGTQAIYKCRPGYRSLGNIIMVCRKGEWVALNPLRKCQKRPCGHPGDTPFGTFTLTGGNVFEYGVKAVYTCNEGYQLLGEINYRECDTDGWTNDIPICEVVKCLPVTAPENGKIVSSAMEPDREYHFGQAVRFVCNSGYKIEGDEEMHCSDDGFWSKEKPKCVEISCKSPDVINGSPISQKIIYKENERFQYKCNMGYEYSERGDAVCTESGWRPLPSCEEAGGGGGGGGGGGGGKCGPPPPIDNGDITSFPLSVYAPASSVEYQCQNLYQLEGNKRITCRNGQWSEPPKCLHPCVISREIMENYNIALRWTAKQKLYSRTGESVEFVCKRGYRLSSRSHTLRTTCWDGKLEYPTCAGPGGGGGPGCPAPELLGGPSVFLFPPKPKDTLMISRTPEVTCVVVDVSHEDPEVKFNWYVDGVEVHNAKTKPREEQYQSTYRVVSVLTVLHQDWLNGKEYKCKVSNKALPAPIEKTISKAKGQPREPQVYTLPPSREEMTKNQVSLTCLVKGFYPSDIAVEWESNGQPENNYKTTPPVLDSDGSFFLYSKLTVDKSRWQQGNVFSCSVMHEALHNHYTQKSLSLSPGGGGGGG
In turn, B2 displayed a dissociation constant (Kd) of 300 nM. Against the preceding molecule, the Kd is about 2-fold lower.
